Experiment [1] deals with ELK (3% skim milk powder solution). The experiment is described as follows: ELISA, ELK-coated control well, ~50 ng iMab per well, anti-VSV-HRP; urea-purified. On the technique in general: ELISA stands for enzyme-linked immunosorbent assay.
The target is the same in experiment [2].
Experiment [3] has the same target. The experiment is described as follows: ELISA, ELK-coated control well, ~20 ng iMab per well, anti-VSV-HRP; urea-purified.
The target is the same in experiment [4]. The experiment in a line: ELISA, ELK-coated control well, ~5 ng iMab per well, anti-VSV-HRP; urea-purified.
Experiment [5] concerns the target chicken lysozyme (chicken), P00698. The experiment is described as follows: ELISA vs. lysozyme, iMab dilution 1:100, before pH 4.8 precipitation. The note with it: remark: other sources report otherwise.
The target is the same in experiment [6]. The experiment is described as follows: ELISA, lysozyme-coated well (100 µg/ml), ~50 ng iMab per well, anti-VSV-HRP; heat (60 °C) purified. The note with it: remark: other sources report otherwise.
Experiment [7] shares this target. The experiment is described as follows: ELISA vs. lysozyme, iMab dilution 1:1000, before pH 4.8 precipitation. The note with it: remark: other sources report otherwise.
Experiment [8] shares this target. The experiment in a line: ELISA vs. lysozyme, iMab dilution 1:100, after precipitation at pH 4.8 and redissolving. The note with it: remark: other sources report otherwise.
Experiment [9] has the same target. The experiment is described as follows: ELISA vs. lysozyme, iMab dilution 1:10, after precipitation at pH 4.8 and redissolving. The note with it: remark: other sources report otherwise.
The target is the same in experiment [10]. The experiment is described as follows: ELISA vs. lysozyme, iMab dilution 1:1000, after precipitation at pH 4.8 and redissolving. The settings on record: remark: other sources report otherwise.
The target is the same in experiment [11]. The experiment is described as follows: ELISA vs. lysozyme, iMab dilution 1:10,000, after precipitation at pH 4.8 and redissolving. The settings on record: remark: other sources report otherwise.
For experiment [12], the target named is ELK (3% skim milk powder solution). The experiment is described as follows: ELISA, ELK-coated control well, ~50 ng iMab per well, anti-VSV-HRP; heat (60 °C) purified.
Experiment [13] deals with chicken lysozyme (chicken), P00698. The experiment is described as follows: ELISA vs. lysozyme, iMab dilution 1:10, before pH 4.8 precipitation. The settings on record: remark: other sources report otherwise.
Sequence of chicken lysozyme (chicken), P00698 (P00698 19-147 limits assumed): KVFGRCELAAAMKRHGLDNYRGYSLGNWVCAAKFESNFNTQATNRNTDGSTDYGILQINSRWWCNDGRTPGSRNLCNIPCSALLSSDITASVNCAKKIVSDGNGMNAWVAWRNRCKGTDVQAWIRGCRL
The target is the same in experiment [14]. The experiment is described as follows: ELISA vs. lysozyme, iMab dilution 1:10,000, before pH 4.8 precipitation. The settings on record: remark: other sources report otherwise.
The target is the same in experiment [15]. The experiment in a line: ELISA, lysozyme-coated well (100 µg/ml), ~50 ng iMab per well, anti-VSV-HRP; urea-purified. The settings on record: remark: other sources report otherwise.

Substitutions are numbered along the chain they refer to. Where two headings read alike, the source gives them in different places.

B1: iMab1300 (designed binder, not shown: small tags and cut ends)
chain: LQVDIKPSQGEISVGESKFFLCQASGYTIGPCISWFSPNGEKLNMGSSTLTIYNANIDDAGIYKCAADSTIYASYYECGHGLSTGGYGYQSEATVNVKIFQ
Regarding B1, the Absorbtion (450 nm) in experiment [1] came to 0.041 A450.

B2: iMab701 (designed binder)
chain: MASTITCEASGYTIGPACVAFDTTLGNNMGTYSAPLTSTTLGVATVTCAADSTIYASYYECGHGLSTGGYGYAAFSVPSVTVNFTA
Regarding B2, the Absorbtion (450 nm) in experiment [2] is 0.069 A450.

B3: iMab1302 (designed binder, not shown: small tags and cut ends)
chain: VVKVVIKPSQNFIENGEDKKFTCRASGYTIGPKCIGWFSQNPEDDSTNVATINMGGGITYYGDSVKERFDIRRDNAKDTSTLSIDDAQPEDAGIYKCAADSTIYASYYECGHGLSTGGYGYDSEATVGVDIFVKLM
B3 came in with an Absorbtion (450 nm) in experiment [1] of 0.045 A450.

B4: iMab1602 (designed binder, not shown: small tags and cut ends)
chain: AVKPVIGSKAPNFGENGDVKTIDRASGYTIGPTCGGVFFQGPTDDSTNVATINMGGGITYYGDSVKETFDIRRDNAKSTRTESYDDNQPEGLTEVKCAADSTIYASYYECGHGLSTGGYGYDVSSRLYGYDILVGTQ
Regarding B4, in experiment [1], the Absorbtion (450 nm) is 0.043 A450.

B5: iMab101 (designed binder, not shown: small tags and cut ends)
chain: VKLVEKGGNFVENDDDLKLTCRASGYTIGPYCMGWFRQAPNDDSTNVATINMGTVTLSMDDLQPEDSAEYNCAADSTIYASYYECGHGLSTGGYGYDSHYRGQGTDVTVSS
In [3], B5 returned an Absorbtion (450 nm) of 0.043 A450.

B6: iMab1200 (designed binder)
chain: HGLPMEKRGNFIVGQNCSLTCPASGYTIGPQCVFNCYFNSALAFSTENMGEWTLDMVFSDAGIYTMCAADSTIYASYYECGHGLSTGGYGYNPVSLGSFVVDSP
B6 returned an Absorbtion (450 nm) in experiment [4] of 0.04 A450.

B7: iMab122 (designed binder, not shown: small tags and cut ends)
chain: NVKLVEKGGNFVENDDDLKLTCRASGRTFSSRTMGWFRQAPNDDSTNVATIRWNGGSTYYTNYGDSVKERFDIRVDQASNTVTLSMDDLQPEDSAEYNCAGTDIGDGWSGRYDYRGQGTDVTVSS
Regarding B7, the Absorbtion (450 nm) in experiment [1] was 0.051 A450.

B8: iMab111 (designed binder, not shown: small tags and cut ends)
chain: NVKLVCKGGNFVENDDDLKLTCRAEGYTIGPYCMGWFRQAPNDDSTNVATINMGGGITYYGDSVKERFDIRRDNASNTVTLSMDDLQPEDSAEYNCAGDSTIYASYYECGHGLSTGGYGYDSHYRCQGTDVTVSS
In experiment [1], B8 showed an Absorbtion (450 nm) of 0.043 A450.

B9: iMab100 (designed binder, not shown: small tags and cut ends)
chain: B8 chain with C6E, C126G
Consider B9, for which the Signal on Elisa in [5] worked out at 0.228; in [7], 0.128; in [8], 0.263; in experiment [9], 0.39; in [10], 0.169; in experiment [11], 0.059. Further, the Signal on Elisa stood at 0.36 in experiment [13] and 0.059 in experiment [14]. Moreover, the Absorbtion (450 nm) in experiment [6] stood at 0.369 A450; in [1], 0.04 A450; in experiment [12], 0.041 A450; in experiment [15] it was 0.494 A450.

B10: iMab1202 (designed binder, not shown: small tags and cut ends)
chain: IVKLVMEKRGNFENGQDCKLTIRASGYTIGPACDGFFCQFPSDDSFSTEDNMGGGITVNDAMKPQFDIRRDNAKGTWTLSMDFQPEGIYEMQCAADSTIYASYYECGHGLSTGGYGYDNPVRLGGFDVDVPDV
Molecule B10 had an Absorbtion (450 nm) in experiment [1] of 0.041 A450.

The record behind these values is US20060292634A1.
